The values below come from FireProtDB (doi:10.1021/bi00025a018).

For orientation: Tm means the temperature at the midpoint of the melting transition.

The labels stand for the following.
B1: Ribonuclease HI, P0A7Y4 (parent)
chain: MLKQVEIFTDGSCLGNPGPGGYGAILRYRGREKTFSAGYTRTTNNRMELMAAIVALEALKEHCEVILSTDSQYVRQGITQWIHNWKKRGWKTADKKPVKNVDLWQRLDAALGQHQIKWEWVKGHAGHPENERCDELARAAAMNPTLEDTGYQVEV

This series covers variants of B1. As to conditions: Escherichia coli (strain K12), Thermal, CD, NaCl 0.1 M, reversible: yes, structure 2RN2, whole UniProt chain shown.
Setting [1] is: pH 3, 50.9 °C, glycine-HCl 10 mM.
The mark [2] stands for this setting: pH 5.5, 52.5 °C, Sodium acetate 10 mM.

On to H62P, for which the “ddG of mutation (higher = less stable)” value under setting [1] was -1 kcal/mol. Besides, where the note is “pH 3, glycine-HCl 10 mM”, the Tm is 54.3 °C; the “change of melting temperature, mutant - wild type (higher = more stable)” value (“change of melting temperature, mutant” below) worked out at 3.4 °C; the “unfolding enthalpy (van 't Hoff)” value came out at 110 kcal/mol. Besides, the “ddG of mutation (higher = less stable)” value under setting [2] is -1.1 kcal/mol. In addition, under “pH 5.5, Sodium acetate 10 mM”, the Tm came to 56.6 °C; the “change of melting temperature, mutant” value worked out at 4.1 °C; the “unfolding enthalpy (van 't Hoff)” value is 102 kcal/mol.
Consider V74L, for which, under setting [1], the “ddG of mutation (higher = less stable)” value was -1.1 kcal/mol. For the setting “pH 3, glycine-HCl 10 mM”, the Tm came to 54.6 °C; the “change of melting temperature, mutant” value came out at 3.7 °C; the “unfolding enthalpy (van 't Hoff)” value is 119 kcal/mol. Besides, under setting [2], the “ddG of mutation (higher = less stable)” value was -0.9 kcal/mol. Moreover, under “pH 5.5, Sodium acetate 10 mM”, the Tm worked out at 55.8 °C; the “change of melting temperature, mutant” value is 3.3 °C; the “unfolding enthalpy (van 't Hoff)” value was 91.2 kcal/mol.
D134H: the “ddG of mutation (higher = less stable)” value under setting [1] is -0.5 kcal/mol. Besides, where the note is “pH 3, glycine-HCl 10 mM”, the Tm turned out to be 53.6 °C; the “change of melting temperature, mutant” value turned out to be 1.7 °C; the “unfolding enthalpy (van 't Hoff)” value stood at 106 kcal/mol. Under setting [2], the “ddG of mutation (higher = less stable)” value was -1.9 kcal/mol. For the same variant, under “pH 5.5, Sodium acetate 10 mM”, the Tm is 59.5 °C; the “change of melting temperature, mutant” value was 7 °C; the “unfolding enthalpy (van 't Hoff)” value came to 107 kcal/mol.
Regarding G23A, under setting [1], the “ddG of mutation (higher = less stable)” value was -0.7 kcal/mol. Further, where the note is “pH 3, glycine-HCl 10 mM”, the Tm came to 53.2 °C; the “change of melting temperature, mutant” value came to 2.3 °C; the “unfolding enthalpy (van 't Hoff)” value was 99.3 kcal/mol. Moreover, the “ddG of mutation (higher = less stable)” value under setting [2] is -0.5 kcal/mol. For the same variant, where the note is “pH 5.5, Sodium acetate 10 mM”, the midpoint of thermal melting (Tm) came to 54.3 °C; the “change of melting temperature, mutant” value amounted to 1.8 °C; the “unfolding enthalpy (van 't Hoff)” value stood at 91.8 kcal/mol.
